B1: Myc-tagged full-length Gab1 (wild type) [mouse] / GST-PTP1B-D181A (substrate-trapping mutant of PTP1B, GST fusion protein) [mouse] (parent)
chain 1: MSGGEVVCSGWLRKSPPEKKLKRYAWKRRWFVLRSGRLTGDPDVLEYYKNDHAKKPIRIIDLNLCQQVDAGLTFNKKEFENSYIFDINTIDRIFYLVADSEEDMNKWVRCICDICGFNPTEEDPVKPLTGSSQAPVDSPFAISTAPASSQMEASSVALPPPYQVISLPPHPDTLGLQDDPQDYLLLINCQSKKPEPNRTLFDSAKPTFSETDCNDNVPSHQTPASSQSKHGMNGFFQQQMMYDCPPSRLTSVSGESSLYNLPRSYSHDVLPKESPSSTEADGELYTFNTPSGTAGVETQMRHVSISYDIPPTPGNTYQIPRTFPESTLGQSSKLDTIPDIPPPRPPKPHPTHDRSPVETCGVPRTASDTDSSYCIPPPAGMTPSRSNTISTVDLNKLRKDASSQDCYDIPRTFPSDRSSSLEGFHSQYKIKSVLTAGGVSGEELDENYVPMNPNSPPRQHSGSFTEPIQEPNYVPMTPGTFDFSSFGMQVPPPAHMGFRSSPKTPPRRPVPVADCEPPPVDRNLKPDRKVKPAPLDIKPLSEWEELQAPVRSPITRSFARDSSRFPMSPRPDSVHSTTSSSDSHDSEENYVPMNPNLSGEDPNLFASNSLDGGSSPMNKPKGDKQVEYLDLDLDSGKSTPPRKQKSSGSGSSMADERVDYVVVDQQKTLALKSTREAWTDGRQSTESETPTKNVK
chain 2: MEMEKEFEEIDKAGNWAAIYQDIRHEASDFPCKVAKLPKNKNRNRYRDVSPFDHSRIKLHQEDNDYINASLIKMEEAQRSYILTQGPLPNTCGHFWEMVWEQKSRGVVMLNRIMEKGSLKCAQYWPQQEEKEMVFDDTGLKLTLISEDVKSYYTVRQLELENLTTKETREILHFHYTTWPAFGVPESPASFLNFLFKVRESGSLSLEHGPIVVHCSAGIGRSGTFCLADTCLLLMDKRKDPSSVDIKKVLLEMRRFRMGLIQTADQLRFSYLAVIEGAKFIMGDSSVQDQWKELSREDLDLPPEHVPPPPRPPKRTLEPHNGKCKELFSSHQWVSEETCGDEDSLAREEGRAQSSAMHSVSSMSPDTEVRRRMVGGGLQSAQASVPTEEELSSTEEEHKAHWPSHWKPFLVNVCMATLLATGAYLCYRVCFH

Variants of: B1
Test: GST pull-down, anti-Myc immunoblot densitometry
Settings: with GST-PTP1B-D181A (substrate-trapping mutant of PTP1B, GST fusion protein) [mouse]; Gab1 expressed in HEK-293 T cells, pervanadate treatment; normalized to lysate loading control; parent: 100; read off a plot

**Q.** chain 1 Y473F was tested. Which percent of parent did it give?
**A.** 270%

**Q.** With chain 1 Y448F as the variant, how does the percent of parent read?
**A.** 170%

**Q.** chain 1 Y373F was tested. Which percent of parent did it give?
**A.** 200%

**Q.** For chain 1 Y628F, which percent of parent is on record?
**A.** 240%

**Q.** For chain 1 Y285F, which percent of parent is on record?
**A.** 180%

**Q.** chain 1 Y660F was tested. Which percent of parent did it give?
**A.** 150%

**Q.** Which percent of parent does the source give for chain 1 Y407F here?
**A.** 160%

**Q.** With chain 1 Y590F as the variant, how does the percent of parent read?
**A.** 310%

— article PMC3637500
